This assay addresses NADPH-dependent thioredoxin reductase from Methanosarcina mazei strain Gö1 (Methanosarcina mazei strain Gö1). Kind of assay: SEC; Sephacryl S-300 gel filtration in 10 mM Tris-HCl pH 7.6, 100 mM NaCl, 2 mM 2-mercaptoethanol; column calibrated with the Bio-Rad Gel Filtration Standard; monomer to dimer.

Consider “NADPH-dependent thioredoxin reductase from Methanosarcina mazei strain Gö1 (enzyme)”, for which the stoichiometry N was determined as 2.
